Measurements taken from article PMC9927260.

The sequences below were run on IBV H120 whole virus (target protein not identified) (Infectious bronchitis virus, live vaccine strain H120) (assay: direct ELAA).
“CACGTCTCTCTATTCGCTCCCTTCGCTAATTGTTCTCTCC [Apt_IBV02]” gave a Kd of 58.2 nM. “CAGACTTTGTTCAGCTCCTCGACTCTTCATTCCCTCCCTT [Apt_IBV03]” gave a Kd of 109 nM. “CCAGTATCATCCCTATCGTAGTCCTCAACAACCCCCTACA [Apt_IBV04]” showed a Kd of 99.9 nM. Sequence “CCCCAATCACAGTTAATCCTCGTTCCTATATCTCCCACAC [Apt_IBV01]” has a Kd of 99.2 nM. “GACTTCCCTCTTTGTGTGTCATTCGGTGTTCTCGCTTTTG [Apt_IBV05]” gave a Kd of 59.4 nM.
